Measured values published in patent publication US20070185028A1, “Compositions and methods for treatment of protein misfolding and protein aggregation diseases” (priority 2004, published 2007).
No end group written: not given here.

Assays:
[1] = as provided by manufacturer (Mimotopes); cited from earlier work
beta amyloid = beta amyloid (Homo sapiens, UniProt P05067); experiment: αB crystallin protein pin array, binding of beta amyloid; conditions: immobilized 8-mer peptide; absorption at 450 nm
Description: αB Crystallin peptides that bind the target protein beta-amyloid were identified by screening an αB crystallin protein pin array, which provides a systematic method for evaluating interactions between peptides corresponding to residues 1-175 of human αB crystallin and selected target proteins in a parallel and simultaneous manner.
Peptides were synthesized on derivatized polyethylene pins arranged in a microtiter plate format. Each peptide was 8 amino acids in length and consecutive peptides were offset by 2 amino acids. All peptides were covalently bonded to the surface plastic pins. The first immobilized peptide was 1MDIAIHHP8 and the last peptide was 168PAVTAAPK175 for the human αB crystallin.
After synthesis, the pins were pre-coated at room temperature with 2% Bovine Serum Albumin (BSA), 0.1% Tween-20 and 0.1% Sodium azide in 10 mM phosphate buffered saline pH 7.2 (PBS) for 1 hr, and washed three times for 10 mins each with 10 mM PBS. To screen for binding to the peptides, fixed concentrations of the target protein beta amyloid was dissolved in 10 mM PBS, containing 0.05% Tween-20, added to each well and incubated for 1 hr at room temperature. The pin array was washed three times for 10 mins each with 10 mM PBS, containing 0.05% Tween-20. Monoclonal or polyclonal primary antibodies for the target protein beta amyloid was diluted into PBS buffer, added to each well and incubated for 1 hr at room temperature. Subsequently, the pin array was washed three times for 10 mins each with 10 mM PBS containing 0.05% Tween-20. Anti-rabbit horse-radish peroxidase conjugate secondary antibodies was diluted into PBS buffer, added to each well and incubated for 1 hr at room temperature. The pin array was washed three times for 10 mins each with 10 mM PBS containing 0.05% Tween-20. A chromogenic substrate of horse-radish peroxidase 3,3′,5,5′-Tetramethylbenzidine (TMB) (Pharmingen, San Diego, Calif.) which is colorless was added, and the reaction was carried out for 45 min.
The reaction was stopped by adding 6N sulfuric acid, which changes the color from blue to yellow. The absorption at 450 nm was measured by an ELISA reader (BioTek, Winooski, Vt.).
The pin array was regenerated by sonication in a water bath (VWR Aquasonic, West Chester, Pa.) with 100 mM PBS, containing 1% Sodium dodecyl sulfate (SDS) and 0.1% 2-Mercaptoethanol@60° C. for 10 mins. Next, the pin array was rinsed three times in deionized water, preheated to 60° C. for 30 secs each time, and shaken in water preheated at 60° C. for 30 min. The pin array was then washed with methanol at 60° C. for 15 secs and air-dried and stored @−20° C. for future use. Each target protein was assayed 2-5 times against the human αB crystallin protein pin array peptides to verify the reproducibility of the results. Peptides numbered 5, 7, 8, 9, 13, 19, 22, 23, 24, 27, 35, 38, 45, 51, 52, 56, 57, 61, 66, 71, 72, and 79 in Table 2 reproducibly tested positive in the protein pin assay.

human γD crystallin = biological target: T1, human γD crystallin (Homo sapiens, UniProt P07320); experiment: αB crystallin protein pin array with γD crystallin; format: binding; conditions: unheated γD crystallin; similar maxima pre-heated 45° C.
T1 construct: made in house
T1 sequence (P07320 1-174): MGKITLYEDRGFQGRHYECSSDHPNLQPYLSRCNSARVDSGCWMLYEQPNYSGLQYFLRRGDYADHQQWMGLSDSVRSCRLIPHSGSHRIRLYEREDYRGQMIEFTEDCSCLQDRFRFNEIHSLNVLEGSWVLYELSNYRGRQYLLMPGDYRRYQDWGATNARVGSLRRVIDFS
Description: (§1) Synthesis of Pins, binding and detection of peptides binding to ligand proteins. The αB crystallin protein pin array was used to measure the interaction between peptides and chaperone target proteins including bovine βH crystallin, human γD crystallin, equine alcohol dehydrogenase (ADH) and porcine citrate synthase (CS) as described (FIG. 12). Ghosh and Clark, Protein Sci 14: 684-95, 2005.
(§2) Refer to the methods section for detailed protocols. The absorbance corresponding to the blue coloration in each well was measured at λ=450 nm and plotted against the amino acid sequence of the corresponding peptide in that well (FIGS. 13 and 14). Wells containing peptides that have strong interactions with target proteins are dark blue and wells containing peptides that have weak or no interaction with target proteins are light blue or clear.
(§3) The purity of the target proteins used in the pin array assays, bovine βH crystallin, human γD crystallin, equine alcohol dehydrogenase (ADH) and porcine citrate synthase (CS) were determined to be >90% by SDS-PAGE. In addition, primary antibodies for each target protein were specific to that target protein and consequently contaminating proteins that may bind to the peptides will not be detected. Eighty-four sequential and overlapping peptide fragments corresponding to residues 1-175 of human αB crystallin were synthesized employing a simultaneous peptide synthesis strategy developed by Geysen, called Multipin Peptide Synthesis (Mimotopes, San Diego, Calif.). Geysen, Southeast Asian J Trop Med Public Health 21: 523-33, 1990; Chin et al., J Org Chem 62: 538-539, 1997. Peptides were immobilized on derivatized polyethylene pins arranged in a microtiter ELISA plate format. Each peptide was eight amino acids in length and consecutive peptides were offset by two amino acids. All peptides were bound covalently to the surface of the plastic pins. The first peptide was 1MDIAIHHP8 and the last peptide was 168PAVTAAPK175 for human αB crystallin.
(§4) Ghosh and Clark, Protein Sci 14: 684-95, 2005. […] The intensity of the blue color in the wells was measured at 450 nm using an ELISA plate-reader (BioTek, Winooski, Vt.). The intensity of the blue color (plotted on the X-axis) was a measure of the interaction between αB crystallin peptides (plotted on the Y-axis) and target proteins. To measure the effect of temperature on the interactions between interactive peptides and the target proteins, the target proteins were heated in a water-bath at 45° C. for fifteen minutes prior to use. Pin arrays are unable to differentiate between monomers, dimers or oligomers of target proteins that exist in solution. Instead, pin arrays are very sensitive detectors of interactions between individual peptides and the entire population (monomers, dimers or oligomers) of specific target proteins that may exist in solution under specific conditions. Each target protein was assayed two to five times. A single pin array was used for all experiments and no change in interactions was observed after more than thirty repetitions. The last three peptides of the protein pin array, 163REEKPAVT170, 165EKPAVTAA172, 167PAVTAAPK174, correspond to the epitope (163REEKPAVTAAPKK175) recognized by the primary antibody for human αB crystallin. A positive reaction is observed for these three peptides in the absence of human αB crystallin as the ligand due to direct binding of the anti-human αB crystallin antibody to these three peptides. The loss of efficiency for the pin array was measured using this assay. The loss of efficiency for the pin array was determined to be <5% by after more than 30 assays.
When βH crystallin was replaced with γD crystallin, a native protein constituent of lens cytoplasm from the same gene family as the β crystallins, as the ligand in the pin array, twelve interactive sequences were identified (FIG. 14: striped bars). […]

bovine βH crystallin = experiment: αB crystallin protein pin array with βH crystallin; format: binding; conditions: unheated βH crystallin, 23° C.; similar maxima pre-heated 45° C.
Description: as §1, §2, §3, §4
Protein pin arrays enabled the identification of interactive sequences necessary for the chaperone activity of human αB crystallin. Interactions between immobilized 8-mer human αB crystallin peptides and unheated and pre-heated βH crystallin, a natural protein constitute of lens cells, were measured as absorbances at λ=450 nm at 23° C. […]

Sequence	Hydrophobicity [1]	further results
APSWFDTG [Peptide 29]	0.56	
DEHGFISR [Peptide 55]	0.16	
DPLTITSS [Peptide 65]	0.49	
DQFFGEHL [Peptide 13]	0.47	binding of beta amyloid in the protein pin assay (beta amyloid): positive; absorbance at 450 nm, interaction with γD crystallin (human γD crystallin): maximum absorbances
DRFSVNLD [Peptide 37]	0.19	
DVDPLTIT [Peptide 64]	0.55	
EELKVKVL [Peptide 44]	0.32	
EERQDEHG [Peptide 53]	−0.47	
EFHRKYRI [Peptide 59]	0.13	absorbance at 450 nm, interaction with γD crystallin (human γD crystallin): maximum absorbances
EKDRFSVN [Peptide 36]	−0.13	
EKPAVTAA [Peptide 83]	0.19	
EMRLEKDR [Peptide 34]	−0.27	
EVHGKHEE [Peptide 50]	−0.18	
FDTGLSEM [Peptide 31]	0.44	
FHSPSRLF [Peptide 9]	0.63	binding of beta amyloid in the protein pin assay (beta amyloid): positive
GDVIEVHG [Peptide 48]	0.37	
GEHLLESD [Peptide 15]	0.18	
GPRKQVSG [Peptide 74]	−0.04	
HESPEELK [Peptide 42]	0.25	
HGFISREF [Peptide 56]	0.48	binding of beta amyloid in the protein pin assay (beta amyloid): positive; absorbance at 450 nm, interaction with γD crystallin (human γD crystallin): maximum absorbances
HGKHEERQ [Peptide 51]	−0.41	binding of beta amyloid in the protein pin assay (beta amyloid): positive
HLLESDLF [Peptide 16]	0.7	

Sequence	Hydrophobicity [1]	further results
HPWIRRPF [Peptide 4]	0.67	
HRKYRIPA [Peptide 60]	0.11	
IAIHHPWI [Peptide 2]	1.12	absorbance at 450 nm, interaction with γD crystallin (human γD crystallin): maximum absorbances
IHHPWIRR [Peptide 3]	0.6	
IPITREEK [Peptide 80]	0.16	
ITREEKPA [Peptide 81]	−0.02	
ITSSLSSD [Peptide 67]	0.35	
KHEERQDE [Peptide 52]	−0.6	binding of beta amyloid in the protein pin assay (beta amyloid): positive
KYRIPADV [Peptide 61]	0.28	binding of beta amyloid in the protein pin assay (beta amyloid): positive; absorbance at 450 nm, interaction with βH crystallin (bovine βH crystallin): Maximum absorbances
LDVKHFSP [Peptide 40]	0.47	
LESDLFPT (also: covalently bound to polyethylene pin) [Peptide 17]	0.59	
LFDQFFGE [Peptide 12]	0.68	
LKVKVLGD [Peptide 45]	0.39	binding of beta amyloid in the protein pin assay (beta amyloid): positive; absorbance at 450 nm, interaction with βH crystallin (bovine βH crystallin): Maximum absorbances
LSEMRLEK [Peptide 33]	0.16	
LSSDGVLT [Peptide 69]	0.5	
MDIAIHHP [Peptide 1]	0.67	
PADVDPLT [Peptide 63]	0.42	
PAVTAAPK [Peptide 84]	0.36	
PERTIPIT [Peptide 78]	0.49	
PPSFLRAP [Peptide 26]	0.61	absorbance at 450 nm, interaction with βH crystallin (bovine βH crystallin): Maximum absorbances
PTSTSLSP [Peptide 20]	0.44	
QVSGPERT [Peptide 76]	0.04	

Sequence	Hydrophobicity [1]	further results
REEKPAVT [Peptide 82]	−0.1	
RIPADVDP [Peptide 62]	0.28	
RKQVSGPE [Peptide 75]	−0.12	
RQDEHGFI [Peptide 54]	0.14	
RRPFFPFH [Peptide 6]	0.62	
SDGVLTVN [Peptide 70]	0.37	
SDLFPTST [Peptide 18]	0.49	
SGPERTIP [Peptide 77]	0.23	
SPEELKVK [Peptide 43]	0.04	
SPFYLRPP [Peptide 23]	0.7	binding of beta amyloid in the protein pin assay (beta amyloid): positive; absorbance at 450 nm, interaction with βH crystallin (bovine βH crystallin): Maximum absorbances
SPSRLFDQ [Peptide 10]	0.27	
SRLFDQFF [Peptide 11]	0.63	
SSLSSDGV [Peptide 68]	0.25	
STSLSPFY [Peptide 21]	0.66	
SWFDTGLS [Peptide 30]	0.64	
TGLSEMRL [Peptide 32]	0.4	
VIEVHGKH [Peptide 49]	0.36	
VKHFSPEE [Peptide 41]	0.19	
VKVLGDVI [Peptide 46]	0.68	
VLGDVIEV [Peptide 47]	0.72	
VNGPRKQV [Peptide 73]	0.04	
VNLDVKHF [Peptide 39]	0.46	
